# From patent US20130266568A1 (Hoffmann-La Roche, published 2013)
# How the values were obtained:
# [1] = biological target: T1, Her3 on Her3-expressing, cMet negative T47D cells / Her3-positive cancer cells (UniProt P21860 20-1342, limits assumed); assay: FACS on live T47D cells (cMet-/Her3+); x axis fluorescence (log), y axis % of Max; antibody concentration not shown
# T1 construct: whole, on cells
# [2] = biological target: T2, cMet (antigen in the SPR measurements) (UniProt P08581 25-932, limits assumed); assay: SPR, cleaved against restricted form
# T2 sequence (P08581 25-932 limits assumed): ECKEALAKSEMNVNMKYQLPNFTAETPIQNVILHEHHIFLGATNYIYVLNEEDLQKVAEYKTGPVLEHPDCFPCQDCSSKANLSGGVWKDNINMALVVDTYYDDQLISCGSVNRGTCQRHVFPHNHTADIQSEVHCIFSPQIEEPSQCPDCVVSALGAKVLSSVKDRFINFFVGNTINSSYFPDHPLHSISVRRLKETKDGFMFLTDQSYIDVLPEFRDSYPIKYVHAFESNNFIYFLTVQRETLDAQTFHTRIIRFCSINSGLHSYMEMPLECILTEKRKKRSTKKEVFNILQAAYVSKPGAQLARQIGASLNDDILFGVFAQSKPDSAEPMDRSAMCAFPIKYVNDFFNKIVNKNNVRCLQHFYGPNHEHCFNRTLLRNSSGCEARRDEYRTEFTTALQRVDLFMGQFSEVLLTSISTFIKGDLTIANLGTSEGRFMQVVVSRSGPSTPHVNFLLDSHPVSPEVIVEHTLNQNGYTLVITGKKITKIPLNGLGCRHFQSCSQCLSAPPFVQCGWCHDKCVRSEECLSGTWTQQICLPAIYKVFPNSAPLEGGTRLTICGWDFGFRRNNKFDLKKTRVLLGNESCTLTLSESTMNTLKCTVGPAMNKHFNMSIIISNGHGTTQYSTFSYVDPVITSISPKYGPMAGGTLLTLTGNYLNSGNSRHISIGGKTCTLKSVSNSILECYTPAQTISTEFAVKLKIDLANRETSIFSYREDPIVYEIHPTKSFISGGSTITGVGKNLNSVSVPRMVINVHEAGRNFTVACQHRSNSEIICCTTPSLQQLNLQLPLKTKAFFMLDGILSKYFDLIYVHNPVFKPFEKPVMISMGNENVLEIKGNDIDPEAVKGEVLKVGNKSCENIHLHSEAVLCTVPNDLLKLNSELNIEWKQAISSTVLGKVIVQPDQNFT
# [3] = biological target: T2, cMet (antigen in the SPR measurements); assay: SPR; after protease (MMP2/9) cleavage; dsFv unleashed
# [4] = biological target: T2, cMet (antigen in the SPR measurements); assay: SPR
# [5] = biological target: T2, cMet (antigen in the SPR measurements); assay: SPR, KD uncleaved against KD after protease cleavage
# [6] = biological target: HER3 (antigen in the SPR measurements) (UniProt P21860 20-643, limits assumed); assay: SPR
# HER3 (antigen in the SPR measurements), sequence (P21860 20-643 limits assumed): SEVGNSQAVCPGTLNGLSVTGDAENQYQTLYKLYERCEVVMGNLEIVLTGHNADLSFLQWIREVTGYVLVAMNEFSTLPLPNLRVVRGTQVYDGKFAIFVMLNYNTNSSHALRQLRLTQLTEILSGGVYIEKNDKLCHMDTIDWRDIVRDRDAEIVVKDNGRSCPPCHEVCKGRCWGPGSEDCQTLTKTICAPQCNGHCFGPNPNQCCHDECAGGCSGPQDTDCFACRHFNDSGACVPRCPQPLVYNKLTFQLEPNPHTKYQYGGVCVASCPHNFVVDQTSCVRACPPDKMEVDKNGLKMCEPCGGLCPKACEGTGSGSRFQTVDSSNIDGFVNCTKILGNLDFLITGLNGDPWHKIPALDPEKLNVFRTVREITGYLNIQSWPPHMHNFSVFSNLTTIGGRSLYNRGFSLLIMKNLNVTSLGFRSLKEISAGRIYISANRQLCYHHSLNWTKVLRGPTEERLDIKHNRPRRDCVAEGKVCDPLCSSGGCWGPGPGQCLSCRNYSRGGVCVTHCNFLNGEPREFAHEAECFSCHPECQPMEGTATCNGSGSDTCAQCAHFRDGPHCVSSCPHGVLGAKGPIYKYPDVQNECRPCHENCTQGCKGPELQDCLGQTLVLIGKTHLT
# [7] = biological target: T2, cMet (antigen in the SPR measurements); assay: SPR; not cleaved; dsFv sterically restricted
# T1 sequence (P21860 20-1342 limits assumed, stated change not applied): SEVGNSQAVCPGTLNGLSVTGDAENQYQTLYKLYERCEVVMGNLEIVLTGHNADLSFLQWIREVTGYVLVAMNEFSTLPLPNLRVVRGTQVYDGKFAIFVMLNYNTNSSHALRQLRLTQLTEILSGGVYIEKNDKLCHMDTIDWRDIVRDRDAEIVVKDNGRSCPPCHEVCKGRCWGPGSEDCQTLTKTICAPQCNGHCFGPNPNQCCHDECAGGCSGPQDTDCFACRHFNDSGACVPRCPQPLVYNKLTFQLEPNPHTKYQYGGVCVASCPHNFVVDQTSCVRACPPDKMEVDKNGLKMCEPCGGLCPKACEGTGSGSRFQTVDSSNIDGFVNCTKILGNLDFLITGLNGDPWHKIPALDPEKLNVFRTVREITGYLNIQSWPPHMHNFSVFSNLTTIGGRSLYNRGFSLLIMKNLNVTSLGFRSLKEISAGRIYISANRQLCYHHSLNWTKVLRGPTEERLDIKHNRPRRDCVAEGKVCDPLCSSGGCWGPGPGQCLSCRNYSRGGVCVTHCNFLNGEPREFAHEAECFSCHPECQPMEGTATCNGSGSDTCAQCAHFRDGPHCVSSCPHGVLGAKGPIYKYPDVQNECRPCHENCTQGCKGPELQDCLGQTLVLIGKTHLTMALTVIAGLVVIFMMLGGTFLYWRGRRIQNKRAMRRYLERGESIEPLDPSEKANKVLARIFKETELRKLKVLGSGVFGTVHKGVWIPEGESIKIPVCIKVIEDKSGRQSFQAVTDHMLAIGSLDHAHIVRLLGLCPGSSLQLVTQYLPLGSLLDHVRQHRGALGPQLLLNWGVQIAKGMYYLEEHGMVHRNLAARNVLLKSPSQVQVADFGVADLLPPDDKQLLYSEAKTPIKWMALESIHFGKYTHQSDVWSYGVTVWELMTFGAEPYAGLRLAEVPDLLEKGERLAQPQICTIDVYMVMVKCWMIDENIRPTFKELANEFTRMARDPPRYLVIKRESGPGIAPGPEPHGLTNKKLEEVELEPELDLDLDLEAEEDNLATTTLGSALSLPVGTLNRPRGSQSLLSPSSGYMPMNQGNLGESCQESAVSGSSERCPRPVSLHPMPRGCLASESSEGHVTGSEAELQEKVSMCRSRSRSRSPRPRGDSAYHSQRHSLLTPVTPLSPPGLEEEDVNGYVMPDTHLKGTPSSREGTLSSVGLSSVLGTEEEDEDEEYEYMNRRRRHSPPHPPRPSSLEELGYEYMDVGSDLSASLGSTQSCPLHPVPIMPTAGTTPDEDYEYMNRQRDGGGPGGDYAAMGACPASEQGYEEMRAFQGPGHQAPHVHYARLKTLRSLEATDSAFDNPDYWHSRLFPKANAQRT
Binder,binding result [1],fold improvement of affinity by MMP processing [2],Kd [3],koff [4],kon [4],reduced binding affinity as compared to after the protease cleavage [5],Kd [4],Kd [6],koff [6],kon [6],Kd [7]
"Her3/MetSS_KHSS_PreSci (protease cleavage site = prescission cleavage site), not cleaved (restricted form) (bispecific antibody, human IgG1, kappa, Trivalent: whole anti-Her3 IgG (knobs-into-holes) with one disulfide-stabilized anti-cMet Fv tethered to both CH3 C-termini; Constructs were designed with a leader peptide) heavy 1: not shown heavy 2: not shown light: DIQMTQTTSSLSASLGDRVTISCRARQDISNYLNWYQRKPDGTVKLLIYYTSRLHSGVPSRFSGSGSGTDYSLTISNLEQEDIATYFCQQGNTFPWTFGGGTKLEIKRTVAAPSVFIFPPSDEQLKSGTASVVCLLNNFYPREAKVQWKVDNALQSGNSQESVTEQDSKDSTYSLSSTLTLSKADYEKHKVYACEVTHQGLSSPVTKSFNRGEC",binds,,,,,,,,,,
"Her3/MetSS_KHSS_M1 after protease cleavage (bispecific antibody, HC2 is cut in the connector; the VL fragment stays disulfide-linked to VH) heavy 1: not shown heavy 2: not shown MLSQSGGGGSGGGGSDIQMTQSPSSLSASVGDRVTITCKSSQSLLYTSSQKNYLAWYQQKPGKAPKLLIYWASTRESGVPSRFSGSGSGTDFTLTISSLQPEDFATYYCQQYYAYPWTFGCGTKVEIKR light: DIQMTQTTSSLSASLGDRVTISCRARQDISNYLNWYQRKPDGTVKLLIYYTSRLHSGVPSRFSGSGSGTDYSLTISNLEQEDIATYFCQQGNTFPWTFGGGTKLEIKRTVAAPSVFIFPPSDEQLKSGTASVVCLLNNFYPREAKVQWKVDNALQSGNSQESVTEQDSKDSTYSLSSTLTLSKADYEKHKVYACEVTHQGLSSPVTKSFNRGEC",,> 5 fold,7.08 nM,0.00015 s⁻¹,21200 M⁻¹ s⁻¹,,,,,,
"Her3/MetSS_KHSS_M3 (MMP 2 and 9 cleavage site - variant 3), not cleaved (bispecific antibody, human IgG1, kappa, Trivalent anti-Her3 IgG with restricted anti-cMet dsFv) heavy 1: not shown heavy 2: not shown light: DIQMTQTTSSLSASLGDRVTISCRARQDISNYLNWYQRKPDGTVKLLIYYTSRLHSGVPSRFSGSGSGTDYSLTISNLEQEDIATYFCQQGNTFPWTFGGGTKLEIKRTVAAPSVFIFPPSDEQLKSGTASVVCLLNNFYPREAKVQWKVDNALQSGNSQESVTEQDSKDSTYSLSSTLTLSKADYEKHKVYACEVTHQGLSSPVTKSFNRGEC",,,,0.000263 s⁻¹,2970 M⁻¹ s⁻¹,17 times,88.6 nM,,,,
"Her3/MetSS_KHSS_M2 after protease cleavage (MMP-2 processed) (bispecific antibody, HC2 is cut in the connector; the VL fragment stays disulfide-linked to VH) heavy 1: not shown heavy 2: not shown LWAQSGGGGSGGGGSDIQMTQSPSSLSASVGDRVTITCKSSQSLLYTSSQKNYLAWYQQKPGKAPKLLIYWASTRESGVPSRFSGSGSGTDFTLTISSLQPEDFATYYCQQYYAYPWTFGCGTKVEIKR light: DIQMTQTTSSLSASLGDRVTISCRARQDISNYLNWYQRKPDGTVKLLIYYTSRLHSGVPSRFSGSGSGTDYSLTISNLEQEDIATYFCQQGNTFPWTFGGGTKLEIKRTVAAPSVFIFPPSDEQLKSGTASVVCLLNNFYPREAKVQWKVDNALQSGNSQESVTEQDSKDSTYSLSSTLTLSKADYEKHKVYACEVTHQGLSSPVTKSFNRGEC",,> 5 fold,,0.000141 s⁻¹,19700 M⁻¹ s⁻¹,,7.14 nM,1.85 nM,0.000327 s⁻¹,177000 M⁻¹ s⁻¹,
"Her3/MetSS_KHSS_M3 after protease cleavage (bispecific antibody, HC2 is cut in the connector; the VL fragment stays disulfide-linked to VH) heavy 1: not shown heavy 2: not shown IAGQSGGGGSGGGGSDIQMTQSPSSLSASVGDRVTITCKSSQSLLYTSSQKNYLAWYQQKPGKAPKLLIYWASTRESGVPSRFSGSGSGTDFTLTISSLQPEDFATYYCQQYYAYPWTFGCGTKVEIKR light: DIQMTQTTSSLSASLGDRVTISCRARQDISNYLNWYQRKPDGTVKLLIYYTSRLHSGVPSRFSGSGSGTDYSLTISNLEQEDIATYFCQQGNTFPWTFGGGTKLEIKRTVAAPSVFIFPPSDEQLKSGTASVVCLLNNFYPREAKVQWKVDNALQSGNSQESVTEQDSKDSTYSLSSTLTLSKADYEKHKVYACEVTHQGLSSPVTKSFNRGEC",,> 5 fold,,0.000105 s⁻¹,20100 M⁻¹ s⁻¹,,5.2 nM,,,,
"Her3/MetSS_KHSS_M2 (MMP 2 and 9 cleavage site - variant 2), not cleaved (bispecific antibody, human IgG1, kappa, Trivalent anti-Her3 IgG with restricted anti-cMet dsFv) heavy 1: not shown heavy 2: not shown light: DIQMTQTTSSLSASLGDRVTISCRARQDISNYLNWYQRKPDGTVKLLIYYTSRLHSGVPSRFSGSGSGTDYSLTISNLEQEDIATYFCQQGNTFPWTFGGGTKLEIKRTVAAPSVFIFPPSDEQLKSGTASVVCLLNNFYPREAKVQWKVDNALQSGNSQESVTEQDSKDSTYSLSSTLTLSKADYEKHKVYACEVTHQGLSSPVTKSFNRGEC",,,,0.000417 s⁻¹,3650 M⁻¹ s⁻¹,16 times,114 nM,1.92 nM,0.000324 s⁻¹,169000 M⁻¹ s⁻¹,
"Her3/MetSS_KHSS_U (protease cleavage site = uPA cleavage site), not cleaved (bispecific antibody, human IgG1, kappa, Trivalent anti-Her3 IgG with restricted anti-cMet dsFv) heavy 1: not shown heavy 2: not shown light: DIQMTQTTSSLSASLGDRVTISCRARQDISNYLNWYQRKPDGTVKLLIYYTSRLHSGVPSRFSGSGSGTDYSLTISNLEQEDIATYFCQQGNTFPWTFGGGTKLEIKRTVAAPSVFIFPPSDEQLKSGTASVVCLLNNFYPREAKVQWKVDNALQSGNSQESVTEQDSKDSTYSLSSTLTLSKADYEKHKVYACEVTHQGLSSPVTKSFNRGEC",,,,0.000193 s⁻¹,9670 M⁻¹ s⁻¹,6 times,20 nM,2.34 nM,0.000372 s⁻¹,159000 M⁻¹ s⁻¹,
"Her3/MetSS_KHSS_M1 (MMP 2 and 9 cleavage site - variant 1), not cleaved (bispecific antibody, human IgG1, kappa, Trivalent anti-Her3 IgG with restricted anti-cMet dsFv) heavy 1: not shown heavy 2: not shown light: DIQMTQTTSSLSASLGDRVTISCRARQDISNYLNWYQRKPDGTVKLLIYYTSRLHSGVPSRFSGSGSGTDYSLTISNLEQEDIATYFCQQGNTFPWTFGGGTKLEIKRTVAAPSVFIFPPSDEQLKSGTASVVCLLNNFYPREAKVQWKVDNALQSGNSQESVTEQDSKDSTYSLSSTLTLSKADYEKHKVYACEVTHQGLSSPVTKSFNRGEC",,,,0.000374 s⁻¹,151 M⁻¹ s⁻¹,350 times,,,,,2480 nM
